# Data published in patent US20250360236A1, “PROSTATE SPECIFIC MEMBRANE ANTIGEN (PSMA) LIGANDS” (Deutsches Krebsforschungszentrum Stiftung des öffentlichen …, priority 2022, published 2025).
# Like-named read-outs stand apart in the source and are kept apart here. Where a SMILES comes first, the peptide text is derived from it. [ ]: non-standard residue; d: D form. The star is where a group is joined. ξ: configuration not given here. X1 = CN1/C(=C/C=C/C=C/C2=[N+](CCCCCC(=O)*)c3ccc(S(=O)(=O)O)cc3C2(C)C)C(C)(C)c2cc(S(=O)(=O)[O-])ccc21; X3 = CN1/C(=C/C=C/C=C/C2=[N+](CCCCCC(=O)*)c3ccc(S(=O)(=O)[O-])cc3C2(C)C)C(C)(C)c2cc(S(=O)(=O)O)ccc21; DOTA = O=C(O)CN1CCN(CC(=O)O)CCN(CC(=O)*)CCN(CC(=O)O)CC1; EuK = O=C(O)CC[C@H](NC(=O)N[C@@H](CCCCN*)C(=O)O)C(=O)O; X2 = O=C(O)CC[C@@H](NC(=O)N[C@H](CCCCN*)C(=O)O)C(=O)O; 2Nal = N[C@@H](Cc1ccc2ccccc2c1)C(=O)O; d2Nal = N[C@H](Cc1ccc2ccccc2c1)C(=O)O; Trx = NC[C@H]1CC[C@H](C(=O)O)CC1; ξK = NCCCCC(N)C(=O)O; βAla = NCCC(=O)O; Sar = CNCC(=O)O
# How the values were obtained:
# PSMA+-cells (LNCaP) = experiment: Cell surface binding and internalization experiments; type: cell-based; details: 68Ga-labeled compounds, 30 nM, 45 min 37 °C, specific uptake by blockage with 500 μM 2-PMPA, mean ± SD n=3
# Method: For internalization experiments, 10^5 cells per well were seeded in poly-L-lysine coated 24-well cell culture plates 24 h before incubation. After washing, the cells were incubated with 30 nM of the radiolabeled compound for 45 min at 37° C. Cellular uptake was terminated by washing 3 times with 1 mL of ice-cold PBS. To remove surface-bound radioactivity, cells were incubated twice with 0.5 mL glycine-HCl in PBS (50 mM, pH=2.8) for 5 min. The cells were washed with 1 mL of ice-cold PBS and lysed using 0.3 N NaOH (0.5 mL). The surface-bound and the internalized fractions were measured in a gamma counter. The cell uptake was calculated as percent of the initially added radioactivity bound to 10^5 cells [% ID/10^5 cells].
# PSMA = biological target: T1, PSMA (Homo sapiens, UniProt Q04609); details: cited from earlier work
# T1 construct: determined in vitro using PSMA^+-cells (LNCaP); host or cells: LNCaP cells
# in vivo = experiment: in vivo; set-up: species or system BALB/c nu/nu mice; details: male, BALB/c nu/nu, mouse, iv, 0.06 nmol, total radioactivity; for tissue to tissue ratio at 1 h: LNCaP Tumor-to-Organ ratio; for tissue uptake at 1 h: Organ distribution
# LNCaP xenograft tumors = details: cited from earlier work
# T1 sequence (Q04609 whole entry): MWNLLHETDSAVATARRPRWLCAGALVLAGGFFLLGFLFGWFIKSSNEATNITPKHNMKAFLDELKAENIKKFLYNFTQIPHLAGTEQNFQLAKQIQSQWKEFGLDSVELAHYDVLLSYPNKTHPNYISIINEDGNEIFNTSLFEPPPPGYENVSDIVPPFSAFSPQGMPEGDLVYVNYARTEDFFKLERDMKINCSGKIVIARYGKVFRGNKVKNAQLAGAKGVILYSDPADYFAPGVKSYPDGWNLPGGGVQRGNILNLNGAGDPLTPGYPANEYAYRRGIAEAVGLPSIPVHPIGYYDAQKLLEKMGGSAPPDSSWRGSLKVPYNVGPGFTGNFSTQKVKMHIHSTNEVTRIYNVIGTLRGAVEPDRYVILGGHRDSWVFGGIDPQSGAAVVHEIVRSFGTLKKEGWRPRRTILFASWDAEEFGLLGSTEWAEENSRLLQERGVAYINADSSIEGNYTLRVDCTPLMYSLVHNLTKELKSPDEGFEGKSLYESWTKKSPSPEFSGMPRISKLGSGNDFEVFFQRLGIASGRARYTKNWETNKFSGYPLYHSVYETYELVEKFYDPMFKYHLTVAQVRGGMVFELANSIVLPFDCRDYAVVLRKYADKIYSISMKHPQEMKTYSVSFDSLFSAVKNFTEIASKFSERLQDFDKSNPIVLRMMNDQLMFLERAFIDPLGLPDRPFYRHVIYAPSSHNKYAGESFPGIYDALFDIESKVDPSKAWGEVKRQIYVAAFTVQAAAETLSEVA
molecule,measurement,setting,value
"CN(CC(=O)NC[C@H]1CC[C@H](C(=O)N[C@@H](Cc2ccc3ccccc3c2)C(=O)NCCCC[C@H](NC(=O)N[C@@H](CCC(=O)O)C(=O)O)C(=O)O)CC1)C(=O)CN(C)C(=O)CN(C)C(=O)CN(C)C(=O)CN(C)C(=O)[C@H](CCCCNC(=O)CN1CCN(CC(=O)O)CCN(CC(=O)O)CCN(CC(=O)O)CC1)NC(=O)CN(C)C(=O)CN(C)C(=O)CN(C)C(=O)CN(C)C(=O)CN(C)C(=O)CCNC(=O)CCCCC[N+]1=C(/C=C/C=C/C=C2/N(C)c3ccc(S(=O)(=O)O)cc3C2(C)C)C(C)(C)c2cc(S(=O)(=O)[O-])ccc21 [BP-1, Glu-urea-Lys-2-Nal-Chx-Sar5-Lys(DOTA)-Sar5-bAla-sulfoCy5] ({X3-βAla}-[Sar][Sar][Sar][Sar][Sar]K(DOTA)[Sar][Sar][Sar][Sar][Sar][Trx][2Nal]-EuK)",Specifically cell surface bound,PSMA+-cells (LNCaP),1.3 ± 0.6 % AR/10^5 cells
same,Specifically internalized,PSMA+-cells (LNCaP),1.1 ± 1.0 % AR/10^5 cells
"CN(CC(=O)NC[C@H]1CC[C@H](C(=O)N[C@@H](Cc2ccc3ccccc3c2)C(=O)NCCCC[C@H](NC(=O)N[C@@H](CCC(=O)O)C(=O)O)C(=O)O)CC1)C(=O)CN(C)C(=O)CN(C)C(=O)CN(C)C(=O)CN(C)C(=O)[C@H](CCCCNC(=O)CCCCC[N+]1=C(/C=C/C=C/C=C2/N(C)c3ccc(S(=O)(=O)O)cc3C2(C)C)C(C)(C)c2cc(S(=O)(=O)[O-])ccc21)NC(=O)CN(C)C(=O)CN(C)C(=O)CN(C)C(=O)CN(C)C(=O)CN(C)C(=O)CCNC(=O)CN1CCN(CC(=O)O)CCN(CC(=O)O)CCN(CC(=O)O)CC1 [BP-4, Glu-urea-Lys-2-Nal-Chx-Sar5-Lys(sulfoCy5)-Sar5-bAla-DOTA] ({DOTA-βAla}-[Sar][Sar][Sar][Sar][Sar]K(X3)[Sar][Sar][Sar][Sar][Sar][Trx][2Nal]-EuK)",Specifically cell surface bound,PSMA+-cells (LNCaP),0.8 ± 1.0 % AR/10^5 cells
same,Specifically internalized,PSMA+-cells (LNCaP),0.4 ± 0.7 % AR/10^5 cells
"O=C(O)CC[C@H](NC(=O)N[C@@H](CCCCNC(=O)[C@H](Cc1ccc2ccccc2c1)NC(=O)[C@H]1CC[C@H](CNC(=O)CN2CCN(CC(=O)O)CCN(CC(=O)O)CCN(CC(=O)O)CC2)CC1)C(=O)O)C(=O)O [PSMA-617, reference compound]",Specifically cell surface bound,PSMA+-cells (LNCaP),0.3 ± 0.1 % AR/10^5 cells
same,Specifically internalized,PSMA+-cells (LNCaP),1.2 ± 0.6 % AR/10^5 cells
same,Ki,"PSMA; ki-value for PSMA-617 from Benesova et al. (3), read-out: ki free ligands",2.3 ± 2.9 nM
"CN(CC(=O)NC[C@H]1CC[C@H](C(=O)N[C@H](Cc2ccc3ccccc3c2)C(=O)NCCCC[C@@H](NC(=O)N[C@H](CCC(=O)O)C(=O)O)C(=O)O)CC1)C(=O)CN(C)C(=O)CN(C)C(=O)CN(C)C(=O)CN(C)C(=O)C(CCCCNC(=O)CN1CCN(CC(=O)O)CCN(CC(=O)O)CCN(CC(=O)O)CC1)NC(=O)CN(C)C(=O)CN(C)C(=O)CN(C)C(=O)CN(C)C(=O)CN(C)C(=O)CCNC(=O)CCCCC[N+]1=C(/C=C/C=C/C=C2/N(C)c3ccc(S(=O)(=O)[O-])cc3C2(C)C)C(C)(C)c2cc(S(=O)(=O)O)ccc21 (stereo partly shown) [^177Lu-BP-1, metal not drawn] ({X1-βAla}-[Sar][Sar][Sar][Sar][Sar][ξK](DOTA)[Sar][Sar][Sar][Sar][Sar][Trx][d2Nal]-X2)",tissue to tissue ratio at 1 h,in vivo; Blood,40 ± 4.75
same,tissue to tissue ratio at 1 h,in vivo; Brain,423 ± 81.3
same,tissue to tissue ratio at 1 h,in vivo; Heart,64.5 ± 12.8
same,tissue to tissue ratio at 1 h,in vivo; Intestine,76.3 ± 13.1
same,tissue to tissue ratio at 1 h,in vivo; Kidney,0.34 ± 0.04
same,tissue to tissue ratio at 1 h,in vivo; Liver,27.8 ± 5.94
same,tissue to tissue ratio at 1 h,in vivo; Lung,18.2 ± 4.54
same,tissue to tissue ratio at 1 h,in vivo; Muscle,165 ± 31.4
same,tissue to tissue ratio at 1 h,in vivo; Spleen,8.05 ± 1.05
same,tissue uptake at 1 h,in vivo; Blood,0.16 ± 0.02 %ID/g
same,tissue uptake at 1 h,in vivo; Brain,0.02 ± 0.001 %ID/g
same,tissue uptake at 1 h,in vivo; Heart,0.1 ± 0.004 %ID/g
same,tissue uptake at 1 h,in vivo; Intestine,0.08 ± 0.01 %ID/g
same,tissue uptake at 1 h,in vivo; Kidney,18.9 ± 4.56 %ID/g
same,tissue uptake at 1 h,in vivo; Liver,0.24 ± 0.03 %ID/g
same,tissue uptake at 1 h,in vivo; Lung,0.38 ± 0.03 %ID/g
same,tissue uptake at 1 h,in vivo; Muscle,0.04 ± 0.004 %ID/g
same,tissue uptake at 1 h,in vivo; Spleen,0.78 ± 0.03 %ID/g
same,tissue uptake at 1 h,in vivo; Tumor LNCaP,5.85 ± 1.16 %ID/g
"CN(CC(=O)NC[C@H]1CC[C@H](C(=O)N[C@H](Cc2ccc3ccccc3c2)C(=O)NCCCC[C@@H](NC(=O)N[C@H](CCC(=O)O)C(=O)O)C(=O)O)CC1)C(=O)CN(C)C(=O)CN(C)C(=O)CN(C)C(=O)CN(C)C(=O)C(CCCCNC(=O)CCCCC[N+]1=C(/C=C/C=C/C=C2/N(C)c3ccc(S(=O)(=O)[O-])cc3C2(C)C)C(C)(C)c2cc(S(=O)(=O)O)ccc21)NC(=O)CN(C)C(=O)CN(C)C(=O)CN(C)C(=O)CN(C)C(=O)CN(C)C(=O)CCNC(=O)CN1CCN(CC(=O)O)CCN(CC(=O)O)CCN(CC(=O)O)CC1 (stereo partly shown) [^177Lu-BP-4, metal not drawn] ({DOTA-βAla}-[Sar][Sar][Sar][Sar][Sar][ξK](X1)[Sar][Sar][Sar][Sar][Sar][Trx][d2Nal]-X2)",tissue to tissue ratio at 1 h,in vivo; Blood,25.9 ± 9.14
same,tissue to tissue ratio at 1 h,in vivo; Brain,275 ± 63.6
same,tissue to tissue ratio at 1 h,in vivo; Heart,48.6 ± 15.7
same,tissue to tissue ratio at 1 h,in vivo; Intestine,49.3 ± 18.2
same,tissue to tissue ratio at 1 h,in vivo; Kidney,0.17 ± 0.08
same,tissue to tissue ratio at 1 h,in vivo; Liver,36.1 ± 6.7
same,tissue to tissue ratio at 1 h,in vivo; Lung,12.1 ± 2.03
same,tissue to tissue ratio at 1 h,in vivo; Muscle,110 ± 51.7
same,tissue to tissue ratio at 1 h,in vivo; Spleen,7.83 ± 0.85
same,tissue uptake at 1 h,in vivo; Blood,0.23 ± 0.08 %ID/g
same,tissue uptake at 1 h,in vivo; Brain,0.02 ± 0.002 %ID/g
same,tissue uptake at 1 h,in vivo; Heart,0.12 ± 0.02 %ID/g
same,tissue uptake at 1 h,in vivo; Intestine,0.12 ± 0.04 %ID/g
same,tissue uptake at 1 h,in vivo; Kidney,37.5 ± 12.1 %ID/g
same,tissue uptake at 1 h,in vivo; Liver,0.14 ± 0.01 %ID/g
same,tissue uptake at 1 h,in vivo; Lung,0.4 ± 0.04 %ID/g
same,tissue uptake at 1 h,in vivo; Muscle,0.06 ± 0.002 %ID/g
same,tissue uptake at 1 h,in vivo; Spleen,0.59 ± 0.12 %ID/g
same,tissue uptake at 1 h,in vivo; Tumor LNCaP,4.3 ± 0.27 %ID/g
O=C([O-])CN1CCN(CC(=O)[O-])CCN(CC(=O)NCC2CCC(C(=O)N[C@@H](Cc3ccc4ccccc4c3)C(=O)NCCCC[C@H](NC(=O)N[C@@H](CCC(=O)O)C(=O)O)C(=O)O)CC2)CCN(CC(=O)[O-])CC1.[177Lu+3] (stereo partly shown) [^177Lu-PSMA-617],"tumor uptake in LNCaP xenograft tumors, reference compounds","LNCaP xenograft tumors; reference values (4), 1 h p.i. printed for 177Lu-PSMA-617",8.47±4.09 % ID/g
same,"kidney uptake, reference compounds",LNCaP xenograft tumors; reference values (4),137.2±77.8 % ID/g
[Glu-urea-Lys(Ahx)]2-HBED-CC [^68Ga-PSMA-10],Kd,"PSMA; radioligand 68Ga-PSMA-10, reference (1)",3.8 nM
^68Ga-Glu-urea-Lys-2-Nal-Chx-Lys(IRDye800CW)-DOTA,"kidney uptake, reference compounds","LNCaP xenograft tumors; mouse, in vivo",65.64±6.60 % ID/g
